For this test, the target named is T1, hZwint-1 (human, UniProt O95229 1-277).
T1 sequence (looked up): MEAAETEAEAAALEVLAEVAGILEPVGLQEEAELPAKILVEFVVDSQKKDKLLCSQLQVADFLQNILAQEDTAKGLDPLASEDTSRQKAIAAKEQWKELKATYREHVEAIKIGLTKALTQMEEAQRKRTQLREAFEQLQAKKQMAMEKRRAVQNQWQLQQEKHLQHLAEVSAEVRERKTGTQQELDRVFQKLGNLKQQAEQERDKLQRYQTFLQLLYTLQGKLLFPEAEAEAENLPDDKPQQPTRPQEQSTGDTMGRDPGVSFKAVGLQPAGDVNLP
Kind of test: two-hybrid.

β-galactosidase assay data for 5 molecules are collected here from article PMC2234252 (The Journal of Cell Biology, 2008).

B1: hZW10 C9 (aa 1–139) (domain or fragment, human, UniProt O43264 1-139, looked up)
chain: MASFVTEVLAHSGRLEKEDLGTRISRLTRRVEEIKGEVCNMISKKYSEFLPSMQSAQGLITQVDKLSEDIDLLKSRIESEVRRDLHVSTGEFTDLKQQLERDSVVLSLLKQLQEFSTAIEEYNCALTEKKYVTGAQRLE
The molecule B1 returned a β-galactosidase assay of 445.

B2: hZW10 full length (aa 1–779) (natural protein, human, UniProt O43264 1-779, looked up)
chain: MASFVTEVLAHSGRLEKEDLGTRISRLTRRVEEIKGEVCNMISKKYSEFLPSMQSAQGLITQVDKLSEDIDLLKSRIESEVRRDLHVSTGEFTDLKQQLERDSVVLSLLKQLQEFSTAIEEYNCALTEKKYVTGAQRLEEAQKCLKLLKSRKCFDLKILKSLSMELTIQKQNILYHLGEEWQKLIVWKFPPSKDTSSLESYLQTELHLYTEQSHKEEKTPMPPISSVLLAFSVLGELHSKLKSFGQMLLKYILRPLASCPSLHAVIESQPNIVIIRFESIMTNLEYPSPSEVFTKIRLVLEVLQKQLLDLPLDTDLENEKTSTVPLAEMLGDMIWEDLSECLIKNCLVYSIPTNSSKLQQYEEIIQSTEEFENALKEMRFLKGDTTDLLKYARNINSHFANKKCQDVIVAARNLMTSEIHNTVKIIPDSKINVPELPTPDEDNKLEVQKVSNTQYHEVMNLEPENTLDQHSFSLPTCRISESVKKLMELAYQTLLEATTSSDQCAVQLFYSVRNIFHLFHDVVPTYHKENLQKLPQLAAIHHNNCMYIAHHLLTLGHQFRLRLAPILCDGTATFVDLVPGFRRLGTECFLAQMRAQKGELLERLSSARNFSNMDDEENYSAASKAVRQVLHQLKRLGIVWQDVLPVNIYCKAMGTLLNTAISEVIGKITALEDISTEDGDRLYSLCKTVMDEGPQVFAPLSEESKNKKYQEEVPVYVPKWMPFKELMMMLQASLQEIGDRWADGKGPLAAAFSSSEVKALIRALFQNTERRAAALAKIK
For B2, the β-galactosidase assay is 187.

B3: hZW10 C7 (aa 1–318) (domain or fragment, human, UniProt O43264 1-318, looked up)
chain: MASFVTEVLAHSGRLEKEDLGTRISRLTRRVEEIKGEVCNMISKKYSEFLPSMQSAQGLITQVDKLSEDIDLLKSRIESEVRRDLHVSTGEFTDLKQQLERDSVVLSLLKQLQEFSTAIEEYNCALTEKKYVTGAQRLEEAQKCLKLLKSRKCFDLKILKSLSMELTIQKQNILYHLGEEWQKLIVWKFPPSKDTSSLESYLQTELHLYTEQSHKEEKTPMPPISSVLLAFSVLGELHSKLKSFGQMLLKYILRPLASCPSLHAVIESQPNIVIIRFESIMTNLEYPSPSEVFTKIRLVLEVLQKQLLDLPLDTDLEN
Consider B3, for which the β-galactosidase assay came to 132.

B4: hZW10 C8 (aa 1–224) (domain or fragment, human, UniProt O43264 1-224, looked up)
chain: MASFVTEVLAHSGRLEKEDLGTRISRLTRRVEEIKGEVCNMISKKYSEFLPSMQSAQGLITQVDKLSEDIDLLKSRIESEVRRDLHVSTGEFTDLKQQLERDSVVLSLLKQLQEFSTAIEEYNCALTEKKYVTGAQRLEEAQKCLKLLKSRKCFDLKILKSLSMELTIQKQNILYHLGEEWQKLIVWKFPPSKDTSSLESYLQTELHLYTEQSHKEEKTPMPPI
Turning to B4, the β-galactosidase assay was determined as 233.

B5: hZW10 C6 (aa 1–356) (domain or fragment, human, UniProt O43264 1-356, looked up)
chain: MASFVTEVLAHSGRLEKEDLGTRISRLTRRVEEIKGEVCNMISKKYSEFLPSMQSAQGLITQVDKLSEDIDLLKSRIESEVRRDLHVSTGEFTDLKQQLERDSVVLSLLKQLQEFSTAIEEYNCALTEKKYVTGAQRLEEAQKCLKLLKSRKCFDLKILKSLSMELTIQKQNILYHLGEEWQKLIVWKFPPSKDTSSLESYLQTELHLYTEQSHKEEKTPMPPISSVLLAFSVLGELHSKLKSFGQMLLKYILRPLASCPSLHAVIESQPNIVIIRFESIMTNLEYPSPSEVFTKIRLVLEVLQKQLLDLPLDTDLENEKTSTVPLAEMLGDMIWEDLSECLIKNCLVYSIPTNSS
The molecule B5 returned a β-galactosidase assay of 275.
